The results in this text go back to the nanobody polyreactivity screen of Harvey et al. (2022).

This series is described as follows: yeast display, Sf9 membrane polyspecificity reagent, FACS + sequencing; frameworks hold sequencing errors. The method in brief:
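Sorting gates, low and high (top ~1%), were placed on anti-HA fluorescence to track expression and on streptavidin fluorescence to track reagent binding. A clone's polyreactivity label is taken from the gate it came out of. The reagent was 10% biotinylated, detergent-solubilized Sf9 membrane, applied for 1 hour at 4 °C to galactose-induced yeast display cells.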
Regarding “QDQLVESGGGLVQAGGSLRLSCAASGFIFGTYAMGWYRQAPGKEREFVAAINWGGGRTYYADSVKGRFTISRDNAKNTVYLQMNSLKPEDTAVYYCAADFGLYYPRYGYWGQGTQVTVSS”, the “polyreactivity (PSR sort gate)” value is reported as “high polyreactivity”. Regarding “QDQLVESGGGLVQAGGSLRLSCAASGFIFNYYGMGWYRQAPGKERELVATISRGASTNYADSVKGRFTISRDNAKNTVYLQMNSLKPEDTAVYYCAKDYGDWGQGTQVTVSS”, the “polyreactivity (PSR sort gate)” value was “low polyreactivity”.

Turning to “QDQLVESGGGLVQAGGSLRLSCAASGFIFSQYAMGWYRHAPGKERELVAAISTSGGSTYYADSVKGRFTISRDNAKNTVYLQMNSLKPEDTAVYYCAAARITRGRRYDYWGQGTQVTVSS”, the “polyreactivity (PSR sort gate)” value is given as “high polyreactivity”. Take “QDQLVESGGGLVQAGGSLRLSCAASGFILNWYAMGVYRQAPGKERELVAAISWTTSDTYYADSVKGRFTISRDYAKNTVYLQMNSLKPEDTAVYYCNAKFYAYYVTFVLHYDYWGHGTQVTVSS”: the “polyreactivity (PSR sort gate)” value was “low polyreactivity”. Regarding “QDQLVESGGGLVQAGGSLRLSCAASGFTFRANAMGWYRQAPGKERELVAAISSGGRTNYADSVKGRFTISRDNAKNTVYLQMNSLKTEDTAVYYCAAAPSKWYYGYGYWGQGTQVTVSS”, the “polyreactivity (PSR sort gate)” value is reported as “high polyreactivity”.

Regarding “QDQLVESGGGLVQAGGSLRLSCAASGFTFSRYAMGWYRQAPGKERELVAAINYSGGSTYYADSVKGRFTISRDNAKNTVYLQMNSLKPEDTAVYYCATGGTKPAYKGHYYWGQGTQVTVSS”, the “polyreactivity (PSR sort gate)” value is “low polyreactivity”. For “QDQLVESGGGLVQAGGSLRLSCAASGFTFVINDMGWYRQAPGKERELVADITSGGDTYYADSVKGRFTISRDNAKNTDYLQMNSLKPEDTAVYYCAADIYPDWIYLLYGYWGQGTQVTVSS”, the “polyreactivity (PSR sort gate)” value was “low polyreactivity”. As for “QDQLVESGGGLVQAGGSLRLSCAASGFTFVINDMGWYRQAPGKEREMVADITSGGDTYYADSVKGRFTISRDNAKNTVDLQMNSLKPEDTAVYYCAADIYPDWIYLLYGYWGQGTQVSVSS”, the “polyreactivity (PSR sort gate)” value was “low polyreactivity”.

Turning to “QDQLVESGGGLVQAGGSLRLSCAASGFTFYAYAMGWYRQAPGKERELVAAITGRGGSTYYADSVKGRFTISRDNAKNTVYLPLNSLKPEDTAVYDCNKVKKSDKFNTVSNDYWGQGTQVTVSS”, the “polyreactivity (PSR sort gate)” value is listed as “high polyreactivity”. For “QDQLVESGGGLVQAGGSLRLSCAASGFTISSYARGWYRQAPGKERELVAAISTRGGSTYYADSVKGRFTISRDNSKNTVYLQMNSLKPEDTAVSYCATGGRGGRRYEYWGQGTQVTVSS” the value was “low polyreactivity”; for “QDQLVESGGGLVQAGGSLRLSCAASGGIFLYYSMGWYRQAPGKERELVAAISRGGGRTYYADSVKGRFTISRDNAKNTVYLHMNSLKPEDTAVYYCAVEYGTGYQWWEYYYWGQGTQVTVSS”, “high polyreactivity”; for “QDQLVESGGGLVQAGGSLRLSCAASGGIFPVNALGWYRQAPVKERELVATITYDGGNTYYADSVKGRFTISRDNAKKTVYLQMNSLKREDTAVYYCAKDSLSFYGYISYIGYGYDYWGQGTQVTVSS”, “low polyreactivity”.

Turning to “QDQLVESGGGLVQAGGSLRLSCAASGGTFLTYAMGWYRQAPGKERELVAAISSGGSTYYADSVKGRFTISRDNAKNTVYLQMNSLKPEDTAVYYCNADPYSRFWGPDYGYWGQGTQVTVSS”, the “polyreactivity (PSR sort gate)” value is “low polyreactivity”. As for “QDQLVESGGGLVQAGGSLRLSCAASGIFPYYAMGGYRQAPGTEREFVAAITRSGGSTYYADSVKGRFTISRDNAKKTVYLQMNSLKPEDTAVYYCNKRYGYTGFSPRYDYWGQGTQVTVSS”, the entry is “low polyreactivity”; as for “QDQLVESGGGLVQAGGSLRLSCAASGITFFVYDMGWYRQAPGTERELVAAITWSGDSTYYADSVKGRFTISRDNAKNTVYLQMNSLKPEDTAVYYCAAQFDVYYSRQPYDYNRSGYWGQGTQVTVSS”, “low polyreactivity”; as for “QDQLVESGGGLVQAGGSLRLSCAASGITVDGYAMGWYRQAPGKDRELVAAITTSGGRTYYADSVKGRFTISRDNAKNTVYLQMNSLKPEHTADYYCNAVRGGRYGLDYWGQGTQVTVSS”, “high polyreactivity”.
